The labels stand for the following.
B1: Small G protein signaling modulator 1 (Mus musculus), Q8BPQ7-1 (parent)
chain: MASVPAEAETRQRLLRTVKKEVKQIMEEAVTRKFVHEDSSHIISFCAAVEACVLHGLRRRAAGFLRSNKIAALFMKVGKGFPPAEELSRKVQELEQLIESARNQIQGLQENVRKLPKLPNLSPLAIKHLWIRTALFGRVLDKIVHYLVENSSKYYEKEALLMDPVDGPILASLLVGPCALEYTKMKTADHFWTDPSADELVQRHRIHSSHLRQDSPTKRPALCIQKRHSSGSMDDRPSISARDYVESLHQDSRATLLYGKNNVLVQPRDDMEAVPGYLSLHQTADVMTLKWTPNQLMNGSVGDLDYEKSVYWDYAVTIRLEEIVYLHCHQQVDSGGTVVLVSQDGIQRPPFRFPKGGHLLQFLSCLENGLLPHGQLDPPLWSQRGKGKVFPKLRKRSPQGSSESTSSDKEDDEATDYVFRIIYPGTQSEFVPQDLMDVSMNNLPPLWQPSPRKSSCSSCSQSGSADGGSTNGCNHERAPLKLLCDNMKYQILSRAFYGWLAYCRHLSTVRTHLSALVNHMIVSPDLPCDAGQGLTASIWEKYIQDSTTYPEQELLRLIYYGGVQPEIRRAVWPFLLGHYQFGMTEMERKEVDEQIHACYAQTMSEWLGCEAIVRQRERESHAAALAKCSSGASLDSHLHRMLHRDSTISNESSQSCSSGRQNLRLQSDSSSSTQVFESVDEVEQTEAEGRSEEKHPKIPNGNPANGTCSPDSGHPSSHNFSSGLSEHSEPSLSTEDSVLDAQRSLPAVFRPGDSSVEDGQSSEATTSRDEAPREELAVQDSLESDLLANESLEEFMSIPGSLDVALPEKDGAVMDGWPGEADKPSRADSEDNLSEEPEMESLFPALASLAVTSSANNEASPVSSSGVTYSPELLDLYTVNLHRIEKDVQRCDRSYWYFTAANLEKLRNIMCSYIWQHIEIGYVQGMCDLLAPLLVILDDEALAFSCFTELMKRMNQNFPHGGAMDTHFANMRSLIQILDSELFELMHQNGDYTHFYFCYRWFLLDFKRELVYDDVFSVWETIWAAKHVSSAHYVLFIALALVEVYRDIILENNMDFTDIIKFFNEMAERHNAKQILQLARDLVHKVQILIENK
partner: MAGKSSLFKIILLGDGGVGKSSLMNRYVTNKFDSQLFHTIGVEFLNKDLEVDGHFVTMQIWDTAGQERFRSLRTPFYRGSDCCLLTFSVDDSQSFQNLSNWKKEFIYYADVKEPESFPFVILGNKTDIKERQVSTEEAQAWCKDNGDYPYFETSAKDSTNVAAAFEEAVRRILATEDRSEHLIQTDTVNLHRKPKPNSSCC
B2: Ras-related protein Rab-9A (Mus musculus), Q9R0M6 (parent)
chain: B1 partner
partner: B1 chain

In the first assay the parent is B1. The settings on record: with rab9a_mouse Rab9a.
N261A: the “effect of a mutation on the interaction” value was “disrupting interaction strength”. The same measure, in the same setting: for Y277A the value was “disrupting interaction strength”; for M297A, “disrupting interaction strength”. Consider K260A, for which the “effect of a mutation on the interaction” value was “disrupting interaction strength”. As to L256A, the “effect of a mutation on the interaction” value was “disrupting interaction strength”. Same read-out and setting: with N294A the entry was “disrupting interaction strength”.

The next assay covers variants of B1. The settings on record: with rab9a_mouse Rab9a. The source holds these as a separate data set.
As to M297A, the “effect of a mutation on the interaction” value is “decreasing interaction strength”.

Consider K260A, for which the “effect of a mutation on the interaction” value was “decreasing interaction strength”. The same measure, in the same setting: with L256A the entry was “decreasing interaction strength”.

Variants of B2 are the subject of a further assay. The settings on record: with Sgsm1, Q8BPQ7-1.
As to MAGKSSLFKIILLGDGGVGKSSLMNRYVTNKFDSQLFHTIGVAFLNKDLEVDGHFVTMQIWDTAGQERFRSLRTPFYRGSDCCLLTFSVDDSQSFQNLSNWKKEFIYYADVKEPESFPFVILGNKTDIKERQVSTEEAQAWCKDNGDYPYFETSAKDSTNVAAAFEEAVRRILATEDRSEHLIQTDTVNLHRKPKPNSSCC [E43A], the “effect of a mutation on the interaction” value was “decreasing interaction strength”. Still for that read-out and setting: for MAGKSSLFKIILLGDGGVGKSSLMNRYVTNKFDSQLFHTIGVEALNKDLEVDGHFVTMQIWDTAGQERFRSLRTPFYRGSDCCLLTFSVDDSQSFQNLSNWKKEFIYYADVKEPESFPFVILGNKTDIKERQVSTEEAQAWCKDNGDYPYFETSAKDSTNVAAAFEEAVRRILATEDRSEHLIQTDTVNLHRKPKPNSSCC [F44A] the value was “decreasing interaction strength”; for MAGKSSLFKIILLGDGGVGKSSLMNRYVTNKFDSQLFHTIGAEFLNKDLEVDGHFVTMQIWDTAGQERFRSLRTPFYRGSDCCLLTFSVDDSQSFQNLSNWKKEFIYYADVKEPESFPFVILGNKTDIKERQVSTEEAQAWCKDNGDYPYFETSAKDSTNVAAAFEEAVRRILATEDRSEHLIQTDTVNLHRKPKPNSSCC [V42A], “decreasing interaction strength”. For the variant MAGKSSLFKIILLGDGGVGKSSLMNRYVTNKFDSQLFHTIGVEFLNKDLEVDGHFVTMQIADTAGQERFRSLRTPFYRGSDCCLLTFSVDDSQSFQNLSNWKKEFIYYADVKEPESFPFVILGNKTDIKERQVSTEEAQAWCKDNGDYPYFETSAKDSTNVAAAFEEAVRRILATEDRSEHLIQTDTVNLHRKPKPNSSCC [W61A], the “effect of a mutation on the interaction” value is “decreasing interaction strength”.

MAGKSSLFKIILLGDGGVGKSSLMNRYVTNKFDSQLFHTAGVEFLNKDLEVDGHFVTMQIWDTAGQERFRSLRTPFYRGSDCCLLTFSVDDSQSFQNLSNWKKEFIYYADVKEPESFPFVILGNKTDIKERQVSTEEAQAWCKDNGDYPYFETSAKDSTNVAAAFEEAVRRILATEDRSEHLIQTDTVNLHRKPKPNSSCC [I40A]: the “effect of a mutation on the interaction” value was “decreasing interaction strength”.

MAGKSSLFKIILLGDGGVGKSSLMNRYVTNKFDSQLFHTIGVEFLNKDLEVDGHFVTMQIWDTAGQERFRSLRTPAYRGSDCCLLTFSVDDSQSFQNLSNWKKEFIYYADVKEPESFPFVILGNKTDIKERQVSTEEAQAWCKDNGDYPYFETSAKDSTNVAAAFEEAVRRILATEDRSEHLIQTDTVNLHRKPKPNSSCC [F76A]: the “effect of a mutation on the interaction” value is “decreasing interaction strength”.

Consider MAGKSSLFKIILLGDGGVGKSSLMNRYVTNKFDSQLFHTIDVEFLNKDLEVDGHFVTMQIWDTAGQERFRSLRTPFYRGSDCCLLTFSVDDSQSFQNLSNWKKEFIYYADVKEPESFPFVILGNKTDIKERQVSTEEAQAWCKDNGDYPYFETSAKDSTNVAAAFEEAVRRILATEDRSEHLIQTDTVNLHRKPKPNSSCC [G41D], for which the “effect of a mutation on the interaction” value is on record as “disrupting interaction strength”. With MAGKSSLFKIILLGDGGVGKSSLMNRYVTNKFDSQLFHTIAVEFLNKDLEVDGHFVTMQIWDTAGQERFRSLRTPFYRGSDCCLLTFSVDDSQSFQNLSNWKKEFIYYADVKEPESFPFVILGNKTDIKERQVSTEEAQAWCKDNGDYPYFETSAKDSTNVAAAFEEAVRRILATEDRSEHLIQTDTVNLHRKPKPNSSCC [G41A], the “effect of a mutation on the interaction” value is on record as “disrupting interaction strength”.

In a further assay the parent is B2. The settings on record: with Sgsm1, Q8BPQ7-1. This is another data set of the same source.
With MAGKSSLFKIILLGDGGVGKSSLMNRYVTNKFDSQLFHTIGVEFLNKDLEVDGHFVTMQIWDTAGQERARSLRTPFYRGSDCCLLTFSVDDSQSFQNLSNWKKEFIYYADVKEPESFPFVILGNKTDIKERQVSTEEAQAWCKDNGDYPYFETSAKDSTNVAAAFEEAVRRILATEDRSEHLIQTDTVNLHRKPKPNSSCC [F69A], the “effect of a mutation on the interaction” value is given as “decreasing interaction strength”.

Consider MAGKSSLFKIILLGDGGVGKSSLMNRYVTNKFDSQLFHTIGVEFLNKDLEVDGHFVTMQIWDTAGQERFRSARTPFYRGSDCCLLTFSVDDSQSFQNLSNWKKEFIYYADVKEPESFPFVILGNKTDIKERQVSTEEAQAWCKDNGDYPYFETSAKDSTNVAAAFEEAVRRILATEDRSEHLIQTDTVNLHRKPKPNSSCC [L72A], for which the “effect of a mutation on the interaction” value is listed as “decreasing interaction strength”.

Consider MAGKSSLFKIILLGDGGVGKSSLMNRYVTNKFDSQLFHTIDVEFLNKDLEVDGHFVTMQIWDTAGQERFRSLRTPFYRGSDCCLLTFSVDDSQSFQNLSNWKKEFIYYADVKEPESFPFVILGNKTDIKERQVSTEEAQAWCKDNGDYPYFETSAKDSTNVAAAFEEAVRRILATEDRSEHLIQTDTVNLHRKPKPNSSCC [G41D], for which the “effect of a mutation on the interaction” value is “decreasing interaction strength”. Turning to MAGKSSLFKIILLGDGGVGKSSLMNRYVTNKFDSQLFHTIAVEFLNKDLEVDGHFVTMQIWDTAGQERFRSLRTPFYRGSDCCLLTFSVDDSQSFQNLSNWKKEFIYYADVKEPESFPFVILGNKTDIKERQVSTEEAQAWCKDNGDYPYFETSAKDSTNVAAAFEEAVRRILATEDRSEHLIQTDTVNLHRKPKPNSSCC [G41A], the “effect of a mutation on the interaction” value is “decreasing interaction strength”.
